Data as given in the Immune Epitope Database (IEDB).
pIC50, pKd: −log10 of the molar value.

How the values were obtained:
[1] = target: HLA-A*32:01; assay: IEDB peptide-MHC binding, purified MHC/competitive/radioactivity; filed as Kd, often an IC50 or EC50 that approximates it; ≥ and ≤ were set here for values at or beyond the usual limits of such assays
[2] = target: HLA-A*30:01; assay: as above
[3] = target: HLA-A*02:01; assay: IEDB peptide-MHC binding, purified MHC/competitive/fluorescence; ≥ and ≤ were set here for values at or beyond the usual limits of such assays
[4] = target: HLA-A*24:02; assay: as above
[5] = target: HLA-A*69:01; assay: IEDB peptide-MHC binding, purified MHC/direct/fluorescence; filed as Kd, often an IC50 or EC50 that approximates it; ≥ and ≤ were set here for values at or beyond the usual limits of such assays
[6] = target: HLA-B*07:02; assay: as above
[7] = target: HLA-A*01:01; assay: IEDB peptide-MHC binding, purified MHC/competitive/radioactivity; filed as Kd, often an IC50 or EC50 that approximates it; ≥ and ≤ were set here for values at or beyond the usual limits of such assays
[8] = target: HLA-A*31:01; assay: IEDB peptide-MHC binding, purified MHC/direct/fluorescence; filed as Kd, often an IC50 or EC50 that approximates it; ≥ and ≤ were set here for values at or beyond the usual limits of such assays
[9] = target: HLA-A*03:01; assay: as above
[10] = target: HLA-A*03:01; assay: IEDB peptide-MHC binding, purified MHC/competitive/radioactivity; filed as Kd, often an IC50 or EC50 that approximates it; ≥ and ≤ were set here for values at or beyond the usual limits of such assays
[11] = target: HLA-A*11:01; assay: as above
[12] = target: HLA-A*11:01; assay: IEDB peptide-MHC binding, purified MHC/direct/fluorescence; filed as Kd, often an IC50 or EC50 that approximates it; ≥ and ≤ were set here for values at or beyond the usual limits of such assays
[13] = target: HLA-A*26:01; assay: IEDB peptide-MHC binding, purified MHC/competitive/radioactivity; filed as Kd, often an IC50 or EC50 that approximates it; ≥ and ≤ were set here for values at or beyond the usual limits of such assays
[14] = target: HLA-B*35:01; assay: as above
[15] = target: HLA-A*02:01; assay: IEDB peptide-MHC binding, purified MHC/direct/fluorescence; filed as Kd, often an IC50 or EC50 that approximates it; ≥ and ≤ were set here for values at or beyond the usual limits of such assays
[16] = target: HLA-A*01:01; assay: as above
[17] = target: HLA-B*15:01; assay: as above
[18] = target: HLA-B*58:01; assay: as above; conditions: source organism: Homo sapiens
[19] = target: HLA-A*31:01; assay: IEDB peptide-MHC binding, purified MHC/competitive/radioactivity; filed as Kd, often an IC50 or EC50 that approximates it; ≥ and ≤ were set here for values at or beyond the usual limits of such assays
[20] = target: HLA-A*33:01; assay: as above; conditions: source organism: Mammarenavirus machupoense
[21] = target: HLA-A*68:01; assay: as above
[22] = target: HLA-B*27:05; assay: IEDB peptide-MHC binding, purified MHC/direct/fluorescence; filed as Kd, often an IC50 or EC50 that approximates it; ≥ and ≤ were set here for values at or beyond the usual limits of such assays; conditions: source organism: Mammarenavirus juninense
[23] = target: HLA-A*02:02; assay: IEDB peptide-MHC binding, purified MHC/competitive/radioactivity; filed as Kd, often an IC50 or EC50 that approximates it; ≥ and ≤ were set here for values at or beyond the usual limits of such assays
[24] = target: HLA-A*02:03; assay: as above
[25] = target: HLA-A*02:06; assay: as above
[26] = source organism: Vaccinia virus WR
[27] = source organism: Dengue virus 2 Jamaica/1409/1983
[28] = source organism: Dengue virus 1 Brazil/97-11/1997
[29] = source organism: Zaire ebolavirus
[30] = source organism: Human herpesvirus 4 strain B95-8
[31] = source organism: Dengue virus 3 Martinique/1243/1999
[32] = source organism: Sudan ebolavirus
[33] = source organism: Vibrio vulnificus
[34] = source organism: Dengue virus 4 Philippines/H241/1956
[35] = source organism: Vaccinia virus
[36] = source organism: Burkholderia mallei
[37] = source organism: Vaccinia virus Copenhagen
[38] = source organism: Mammarenavirus machupoense
[39] = source organism: Orthohantavirus hantanense
[40] = source organism: Dengue virus 4 Dominica/814669/1981
[41] = source organism: Dengue virus 3 Singapore/8120/1995
[42] = source organism: Francisella tularensis subsp. tularensis FSC198
[43] = source organism: Marburg virus - Musoke, Kenya, 1980
[44] = source organism: SARS coronavirus Tor2
[45] = source organism: Mycobacterium tuberculosis

KTMTTVYIL
pKd [1, 26]: 7.86

GQLKLNWFKK
pKd [1, 27]: 5.68

KQWFLDLPLP
pKd [2, 28]: 5.02

ELSFTVVSN
pIC50 [3, 29]: ≤ 3.66
pIC50 [4, 29]: ≤ 3.92

QPRAPIRPI
pKd [5, 30]: 5.60
pKd [6, 30]: 6.79

QRKKTGKPSI
pKd [2, 31]: 5.94

INQIIHDFI
pIC50 [4, 32]: 5.56

WTTLLSLTF
pKd [7, 28]: 4.95

MLTPINEEA
pIC50 [3, 29]: 6.11

YRFLVINRL
pIC50 [4, 26]: 6.05

GLVSKFMSN
pIC50 [3, 26]: 4.86

GKIIHEWCCR
pKd [1, 28]: ≤ 4.29

LLYFKVFGI
pKd [1, 26]: ≤ 4.43

KCYGVSATK
pKd ([8]; source organism: SARS-CoV1): 5.45

RTWFHGSLY
pKd ([9]; source organism: Cryptosporidium parvum): 7.88

DKLSSTNQL
pIC50 [4, 29]: 4.79

ALLATSIFK
pKd [10, 28]: 8.39
pKd [11, 28]: 7.63
pKd [2, 28]: 6.26

TQMGGWFQK
pKd [9, 33]: 6.07
pKd [12, 33]: 7.36

RTSFAFQAI
pKd [1, 26]: 8.42

ETTKRDLGM
pKd [13, 31]: 5.84

LNDTIHLHQ
pIC50 [4, 32]: 4.47

GTNGISNGI
pKd [1, 26]: 7.70

MPPLRFLGED
pKd [14, 34]: 4.82

MALIVSIFK
pKd [2, 35]: 6.05

GNPGRFWNTT
pKd [1, 27]: 5.00

DAAAPLPPV
pKd [15, 36]: ≤ 4.70
pKd [5, 36]: 9.10

LTILIRTGLL
pKd [13, 27]: 5.07

AIMMILSTI
pKd [1, 26]: 8.61

TITETAATI
pIC50 [3, 32]: 4.35
pIC50 [4, 32]: 4.32

NSDEQSLEY
pKd ([16]; source organism: Francisella tularensis subsp. holarctica LVS): ≥ 9.00

SWLITSGFR
pKd ([9]; source organism: Cowpox virus): ≤ 4.70
pKd ([8]; source organism: Cowpox virus): 5.96

KLGLITNTI
pIC50 [3, 29]: 5.72

TSITQKGIIF
pKd [7, 28]: 5.13

LIGKEEYVDY
pKd [7, 34]: 5.10

IADMGHLKY
pKd ([9]; source organism: Homo sapiens): 5.52
pKd ([12]; source organism: Homo sapiens): 5.55
pKd ([17]; source organism: Homo sapiens): 5.39
pKd [18]: 5.70

EPIVGAETF
pKd ([6]; source organism: Human immunodeficiency virus 1): 5.25

ITDYQGKTV
pKd [7, 34]: ≤ 4.47

VLEENMDVEI
pKd [7, 28]: ≤ 4.33

HAHWTEAKM
pKd [14, 28]: 6.55

KVVRVQRPTP
pKd [2, 27]: 6.91

ITVIDLEPIS
pKd [2, 34]: 6.98

STINICLPY
pKd [1, 26]: 7.50

RTRYLPSLV
pKd [2, 37]: 9.31

LINFLLRSI
pKd [1, 26]: 6.60

IRYQATGFG
pIC50 [4, 29]: 4.26

RTAPPSLYGR
pKd [10, 38]: 7.79
pKd [11, 38]: 8.05
pKd [2, 38]: 6.12
pKd [19, 38]: 8.80
pKd [20]: 5.62
pKd [21, 38]: 7.99

LTSRETALM
pKd [7, 34]: 5.74

RRVAHSSLY
pKd [22]: 6.77

MLYILGLFK
pKd [9, 39]: 6.99
pKd [12, 39]: 7.73

RDKFRKSSF
pIC50 [4, 32]: 4.45

RVTDMAPFK
pKd ([9]; source organism: Listeria monocytogenes): 6.39

DVFFTPPEK
pKd [2, 27]: 5.89
pKd [21, 27]: 8.44

RTENFVLSI
pKd [1, 26]: 8.79

AVPVHWVPTS
pKd [2, 31]: 4.98

LVKLHSGKDV
pKd [2, 28]: 5.23

EEINNQLLL
pIC50 [4, 35]: 4.24

TDFHERPVI
pIC50 ([4]; source organism: Variola virus): 6.39

LFDLDEDDE
pIC50 [3, 29]: ≤ 3.67

HILGPDCCI
pIC50 [3, 29]: 4.18
pIC50 [4, 29]: ≤ 3.87

NLTSTWVMY
pKd [7, 40]: 5.70

IDSMFLMTA
pIC50 ([3]; source organism: Variola virus): 4.54

GVTGILQLP
pIC50 [3, 29]: 4.20

LPEYGTLGLE
pKd [14, 31]: 5.35

RLLLNRFTM
pKd [1, 31]: 7.48

ATARSSPEK
pKd [2, 26]: 9.23

LIGNEEFLDY
pKd [7, 31]: 5.78

CLRCSKLNL
pKd [2, 26]: 6.32

LESRFTPQF
pIC50 [4, 29]: 4.79

KVKYEGAGA
pKd [2, 34]: 6.91

ISGQSPART
pIC50 [3, 29]: ≤ 3.86

GSKASCVLK
pKd [2, 26]: 6.58

AWIPYFGPA
pIC50 [3, 29]: 4.70
pIC50 [4, 29]: ≤ 4.09

AIKVLKGFK
pKd [10, 31]: 6.80
pKd [2, 31]: 5.86

EIQLTDYGAL
pKd [13, 28]: 5.25

FNYLFGGFS
pIC50 ([3]; source organism: Variola virus): 4.29

KALKINWYK
pKd [10, 41]: 7.08
pKd [11, 41]: 7.09
pKd [2, 41]: 6.44
pKd [19, 41]: 9.96

INVEYRFLV
pIC50 [3, 26]: 5.78
pIC50 [4, 26]: 5.24

STFIMLEGE
pIC50 [3, 37]: ≤ 3.36

SFSSGWSPR
pKd [9, 42]: ≤ 4.70
pKd [8, 42]: 8.47

VTTWEDVPYL
pKd [7, 41]: 4.99

IHHASAPLT
pIC50 [3, 29]: ≤ 3.42

SSNNVSSSI
pKd [1, 37]: 6.81

GMHHLYREY
pKd ([17]; source organism: Mammarenavirus juninense): 6.87

LTAGLSVQQ
pIC50 [3, 29]: ≤ 3.53

DGIRGFPRC
pIC50 [3, 29]: ≤ 3.90

EFLRYLLFG
pIC50 [4, 35]: 4.75

KLRCRNTEA
pKd [2, 26]: 7.85

LIEWAMEKS
pIC50 [3, 35]: ≤ 3.39

KTKIDIIFA
pKd [2, 35]: 8.00

ALLTGSYTI
pKd [15, 43]: 9.30
pKd [5, 43]: 5.18

FTPQFLLQL
pIC50 [3, 29]: 6.54
pIC50 [4, 29]: 6.09

TFKDESIFI
pIC50 [4, 37]: 6.48

FVDGVPFVV
pKd ([16]; source organism: SARS-CoV1): 5.85
pKd ([15]; source organism: SARS-CoV1): 6.91
pKd ([12]; source organism: SARS-CoV1): ≤ 4.64
pKd ([5]; source organism: SARS-CoV1): 7.63
pKd [23, 44]: 8.02
pKd [24, 44]: 7.07
pKd [25, 44]: 9.04

ATVTGGIFLF
pKd [7, 27]: 5.69
pKd [13, 27]: 5.60

GPILTLWEGN
pKd [1, 40]: 6.30

FLNEDHWFGR
pKd [1, 34]: 5.81

HHRRTDNDS
pIC50 [3, 29]: ≤ 4.14

AMLAGTAVV
pKd [15, 45]: 8.23

FRKSSFFVW
pIC50 [4, 32]: 5.62

GRQTQSRPI
pIC50 [4, 29]: ≤ 3.69

SSECQGEML
pKd ([16]; source organism: Homo sapiens): 5.32

APTGDLPRA
pKd ([15]; source organism: Homo sapiens): ≤ 4.66
pKd ([5]; source organism: Homo sapiens): 5.17
pKd ([6]; source organism: Homo sapiens): 5.26

KWKRQLNSL
pKd [2, 34]: 6.54

GLDPTGVAV
pKd [15, 45]: 7.76

VIPDELIDVL
pKd [23, 26]: 5.60
pKd [24, 26]: 5.34
pKd [25, 26]: 6.53

YMSNLFDIPL
pKd [23, 26]: 7.72
pKd [24, 26]: 7.99
pKd [25, 26]: 6.90

IAVGMVTLY
pKd [14, 28]: 7.87

DVLPFDIKYI
pKd [23, 26]: 5.92
pKd [24, 26]: 6.73
pKd [25, 26]: 5.95

MLHNPTSET
pKd [23, 26]: 5.38
pKd [24, 26]: 6.74
pKd [25, 26]: ≤ 4.11

IGVLLTWIGL
pKd [1, 31]: ≤ 4.48

QTGIQRTVFF
pKd [7, 34]: ≤ 4.15

LTKRFSLGM
pKd [13, 27]: ≤ 4.50
